From article PMC5353611

What was measured:
[1] = target: His-tagged C-propeptide of the human procollagen α1(I) chain (C1A1His), chain of homo-CPI (human); experiment: SDS-PAGE (non-reducing and reducing) + MALDI-TOF mass spectrometry; purified homo-CPI; ~85 kDa non-reducing, 30 kDa reducing; disulfide-bonded trimer
[2] = target: His-tagged C-propeptide of the human procollagen α2(I) chain (C1A2His) (human); experiment: co-purification (Co2+ affinity by the His-tag of the α2 chain, gel filtration) with SDS-PAGE and MALDI-TOF mass spectrometry; α1 and α2 C-propeptides co-expressed in HEK 293T (plasmids 2:1); hetero-CPI separated from untagged homo-CPI by the His-tag of the α2 chain; with or without removal of the tag by TEV protease; Superdex S200

Substance | stoichiometry N [1] | stoichiometry N (α1 chains per α2 chain) [2]
His-tagged C-propeptide of the human procollagen α1(I) chain (C1A1His), chain of homo-CPI (domain or fragment) | 3 | 
Non-tagged C-propeptide of the human procollagen α1(I) chain (C1A1) (domain or fragment) |  | 2
